Data from the nanobody polyreactivity screen of Harvey et al. (2022).

Assay: yeast display, Sf9 membrane polyspecificity reagent, FACS + sequencing; frameworks hold sequencing errors
Outline: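 In a synthetic yeast display library (Saccharomyces cerevisiae BJ5465), nanobody expression was induced with galactose for 36–48 hours. FACS gates were set low and high (top ~1%) using anti-HA fluorescence for expression and streptavidin fluorescence for binding of the Sf9 membrane reagent. Each polyreactivity label is drawn from the gate of origin.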
For “QVQLVESGGGLVQAGGSLRISCAASGITFYGYAMGRYRQAPGKERELVATISKSGGITSYADSVKGRFTISRDNAKNTVYLQMNSLKPEDTAVYYCNRGKSYGGYDYWGQGTQVTVSS”, the “polyreactivity (PSR sort gate)” value was “low polyreactivity”. With “QVQLVESGGGLVQAGGSLRISCAASGLIFGINAMGWYIQAPGKERELVATITSGGGTNYADSVKGRFTISRDNAKNTVYLQMNSLKPEYTAVYFCALDSASDTIYDYWGQGTQGTVSS” the “polyreactivity (PSR sort gate)” value was “low polyreactivity”. In the case of “QVQLVESGGGLVQAGGSLRISCAASGLTFDYNAMGWYTQAPGKERELVAAITSGGSTKYADSVKGRFTISRDNSKNTVYLQMNSLKPEDTAVYYCARDRPGDYAGYDYWGQGTQVTVSS”, the “polyreactivity (PSR sort gate)” value is reported as “low polyreactivity”. In the case of “QVQLVESGGGLVQAGGSLRISCAASGLTFGRYAMGWYRQAPGKEMELVAAITGSGGRTYYADSVKGRFTISRDNAKNNVYLQINSLKQEDTAVYYCATEASPRGYAEYDYWGQGTQVTVSS”, the “polyreactivity (PSR sort gate)” value is reported as “high polyreactivity”. With “QVQLVESGGGLVQAGGSLRISCAASGLTFWAYAMGWYRQAPGKEREFLAAISWSGDSTYYADSVKGRFTISRDNAKNTVYLQMNSLKPEDTAVYYCAAEWYYVYIAPYDYWGLGTQVTVSS” the “polyreactivity (PSR sort gate)” value was “low polyreactivity”. With “QVQLVESGGGLVQAGGSLRISCAASGRIFEVYDMGWYRQAPGKERELVAAISESDDNTYYADSVKGRFTISRDNAKNTVYLQMNSLKPEDTEVYYCNADVPGDTGWWGFDYWGQGTQVTVSS” the “polyreactivity (PSR sort gate)” value was “low polyreactivity”. In the case of “QVQLVESGGGLVQAGGSLRISCAASGRIFSWYVMGWYRQAPGKERELVAAISSGGSTYYADSVKGRFTISRDNAKNTVSFQMNSLKPEDTAVYYCAVRPYVYRIGASRLDYWGQGTQVTVSS”, the “polyreactivity (PSR sort gate)” value is reported as “high polyreactivity”. For “QVQLVESGGGLVQAGGSLRISCAASGRIFYVYAMGWYRQAPGKERELVAAISTGSPTYYADSVNGRFTISRDNAKNTVYLQMNSLKPEDTAVYFCATGSIHGDFWSFRHQYYYWGQGTQVTVSS”, the “polyreactivity (PSR sort gate)” value was “low polyreactivity”. In the case of “QVQLVESGGGLVQAGGSLRISCAASGRTFARYVMGWYRQAPGKERELVAAISGGGGSTYYADSVKGRLTISRDTAKNTVFLQMNSLKPAETAVYYCAAVPEGPNTGDDANGLDYWGQGTQVTVSS”, the “polyreactivity (PSR sort gate)” value is reported as “low polyreactivity”. With “QVQLVESGGGLVQAGGSLRISCAASGRTFGPYAMGWYRQAPGKERELGAAITSSGGSTYYADSVKGRFTISRDNAKNTVYLQMNSLKPEDTAVFYCNKLYWRQSLDYDYWGQGTQVTVSS” the “polyreactivity (PSR sort gate)” value was “low polyreactivity”. With “QVQLVESGGGLVQAGGSLRISCAASGRTFGRYTMGWYRQAPGKVRELVASISNTARTNYADSVKGRFTISRDNAKNTVYLQMNSLKPEDTAVYYCASGFVRYRGTRDYWGQGTQVTVSS” the “polyreactivity (PSR sort gate)” value was “low polyreactivity”. For “QVQLVESGGGLVQAGGSLRISCAASGRTFRHYAMGWYIQAPGKEREFVAAISRSGGSTRYADSVKGRFTISRDNAKNSVYLQMNSLKPEDTAVYYCAATSRSYNDYDYWGQGTQVTVSS”, the “polyreactivity (PSR sort gate)” value was “high polyreactivity”. With “QVQLVESGGGLVQAGGSLRISCAASGRTFRKYGMGWYRQAPGKERELLAAITRSGDSTYYADSVKARFTISRDNAMNTVYLQMNSLKPEDTAVYYCNTDGPRTYDTWEYDYWGQGTQVTVSS” the “polyreactivity (PSR sort gate)” value was “high polyreactivity”. For “QVQLVESGGGLVQAGGSLRISCAASGRTFSRYAMGGYRQAPGTERELVAAISRRGSSTYYADSVKGRFTISRDNAKNTVYLQINSLKPEDTAVYYCNTVTFPYVPALYDYWGQGTQVTVSS”, the “polyreactivity (PSR sort gate)” value was “high polyreactivity”. For “QVQLVESGGGLVQAGGSLRISCAASGRTFWKYVMGWYRQAPGKEMELVAVISRPAGSTYYADSVKGRFTISRDNAKNTVYLQRNSLKPEDTAVYYCDKRPKNKPVLGDYDHWGQGTQVTVSS”, the “polyreactivity (PSR sort gate)” value was “low polyreactivity”. In the case of “QVQLVESGGGLVQAGGSLRISCAASGRTFYWNAMGWYRQAPGKERELVASINGGGSTYYADSVKGRFTISRDNAKNTVYLQMNSLKPEDTAVYYCNAESYEFHRAWGDYDYWGQGTQVTVSS”, the “polyreactivity (PSR sort gate)” value is reported as “low polyreactivity”. In the case of “QVQLVESGGGLVQAGGSLRISCAASGSIFDYYVMGWYRQATGKERELVAAISWSGASTYYADSVKGRCTISRDNAKNTVYLQMNSLKREDTAVYYCAAYYGVNNLIDYDYWGQGTQVTVSS”, the “polyreactivity (PSR sort gate)” value is reported as “low polyreactivity”. With “QVQLVESGGGLVQAGGSLRISCAASGSIFGDNAMGWYRHAPGKERELVAAITFSGGSTHYADSVKGRFTISRDTAKNTVYLQMNSLKPEDTAVYYCAKRWRYSKHVNYYYWGQGTQVTVSS” the “polyreactivity (PSR sort gate)” value was “high polyreactivity”. With “QVQLVESGGGLVQAGGSLRISCAASGSIFGWYAMGWYRPAPGKEREFVATISRRGGRTYYADSVKGRFTISRDNAKNTVYLQMNSLKQEDTAVYYCAANSVYKEDYWGQVTQVTVSS” the “polyreactivity (PSR sort gate)” value was “high polyreactivity”. For “QVQLVESGGGLVQAGGSLRISCAASGSIFHTYAMGWYRQAPGKERELVAAITVSGGDTYYADSVKGRFTISRDNAKNTVYLQMHSLKPEDTAVYYCAVDTTTSYTVEYDYWGQGTQVTVSS”, the “polyreactivity (PSR sort gate)” value was “low polyreactivity”. In the case of “QVQLVESGGGLVQAGGSLRISCAASGSIFPTYAMGWYRQAPGKERELVAAISGSGGSTYYADSVKGRFTISRDNAKNTVYFQINSLKPEDTAVYYCAVRRRRYHTYYRGYDNWGQGTQVTVSA”, the “polyreactivity (PSR sort gate)” value is reported as “low polyreactivity”. In the case of “QVQLVESGGGLVQAGGSLRISCAASGSIFRIYAMGWYRQAPGKERELVAAISWTGGSTYYADSVKGRFSISRDNAKNTVYLQMNSMKPDDTAVYYCASRPRYKFSAYEYWGQGTQVTVSS”, the “polyreactivity (PSR sort gate)” value is reported as “high polyreactivity”. In the case of “QVQLVESGGGLVQAGGSLRISCAASGSIFRWNAMGWYRQAPGKERELVAAINWSGGSTYYADSVKGRFTISRDNAKNTVYLQMNSLKPEDTAVYYCAVDYWSGITWVEYWGQGTQVTVSS”, the “polyreactivity (PSR sort gate)” value is reported as “high polyreactivity”. In the case of “QVQLVESGGGLVQAGGSLRISCAASGSIFSRNAMGWYRQAPGKERELVAAITSGGSTYYADSVKGRFTISRDNAKNTVYLQMNSLKPEDTAVYYCAAVDYYGYVPEFGYWGQGTQVTVSS”, the “polyreactivity (PSR sort gate)” value is reported as “low polyreactivity”. In the case of “QVQLVESGGGLVQAGGSLRISCAASGSIFYVYAMGLYRQAPGKERELVAAISRRGARTYYADSVKGRFTISRDNAKNTVYLQMNSLKPEDSAVYYCNADQYYTVGYSAEYEYWGQGTQVTVSS”, the “polyreactivity (PSR sort gate)” value is reported as “low polyreactivity”. With “QVQLVESGGGLVQAGGSLRISCAASGSTFFKNAMGWYRQAPGKERELVAAITWSGDRTYADSVKGRFTISRDNAKNTVYLQMNSLKPEDTAVYYCNVDITGYDDDYWGQGPQVTVSS” the “polyreactivity (PSR sort gate)” value was “low polyreactivity”. For “QVQLVESGGGLVQAGGSLRISCAASGSTFPYYAMGWYRQAPGKERELVAAISQNGGSTYYADSVKGRFTISRDNAKNTVYLQMNSLKPEDTAGYYCNRTARKLRTVHSSVVGLDYWGQGTQVTVSS”, the “polyreactivity (PSR sort gate)” value was “low polyreactivity”. For “QVQLVESGGGLVQAGGSLRISCAASGSTFRYYAMGWYKQAPGKERELVAAITTSGGRTYYADSVKGRFTISRDNAKNTVYLQMNSLKPEDTAVYYCAIRYSTPYLTDNFLSGPGYYYWGQGSQVTVSS”, the “polyreactivity (PSR sort gate)” value was “high polyreactivity”. With “QVQLVESGGGLVQAGGSLRISCAASGSTFWNAMGWYRQAPGKERELVAAIRLSGGSTYYADSVKGRFTISRDNAKNTVYLQMNSLKPEDTAVYYCNSDVTFGYWEYDYWGQGTQVTVSS” the “polyreactivity (PSR sort gate)” value was “low polyreactivity”. With “QVQLVESGGGLVQAGGSLRISCAASGSTFYCYAMGWYRQAPGKERELVAAIRRNGDGTYYADSVKGRFTISRDNAKNTVYLQMNSLKPVDTAVYYCAARRFIPRFNYWGQGTQVTVSS” the “polyreactivity (PSR sort gate)” value was “high polyreactivity”. For “QVQLVESGGGLVQAGGSLRISCAASGSTFYKYDMGWYRQAPGKEREFVAVISRSGGNTYYADSVKGRFTISRDNAKNTVYLQMNSLKPEDTAVSYCAADNYPDEYDYWGQGTQVTVSS”, the “polyreactivity (PSR sort gate)” value was “low polyreactivity”. With “QVQLVESGGGLVQAGGSLRISCAASGSTFYLYDMGWYRQAPGKERELVANITSGTSTTYADSVKVRFTISRDNAKNTVYLQMNSLKPEDTAVYYCNATYTSPEYDYWGQGTQVTVSS” the “polyreactivity (PSR sort gate)” value was “low polyreactivity”. In the case of “QVQLVESGGGLVQAGGSLRISCAASGSTFYRYPMAWYRQAPGKERELVAAISGSGGRTYYADSVKGRFTISRDNAKNTVYLQMNSLKPEYTAVYYCATRFGQRSDYWGQGTQVTVSS”, the “polyreactivity (PSR sort gate)” value is reported as “high polyreactivity”. For “QVQLVESGGGLVQAGGSLRISCAASGSTFYYNAMGWYRQAPGKERELVAAISYSGGRTYYADSLTGRFTISRDNAKNTVYLQMNSLKPEDTAVYYCATGQPILALRYAYGYWGQGTQVTVSS”, the “polyreactivity (PSR sort gate)” value was “low polyreactivity”. In the case of “QVQLVESGGGLVQAGGSLRISCAASGSTVRYYAMGWNRQAHGKERHLVARNTSRAGRTYYADSVKGRFTISRDNAKNTVYLQMNSLKPEDTAVYYCAADQSGFRWKWYIRYDYWGQGTQVTVSS”, the “polyreactivity (PSR sort gate)” value is reported as “high polyreactivity”. In the case of “QVQLVESGGGLVQAGGSLRISCAASGTNNRTYAMGWYRQSTGKERDLVAAISKRGGSTYYADSVKGRFTISRDKAKNTVYLQMNSLKPEDTEVYYCAKKSTPGYGTSNDSWVQGTQVTVSS”, the “polyreactivity (PSR sort gate)” value is reported as “high polyreactivity”. With “QVQLVESGGGLVQAGGSLRISCAASVSTFWYYAMGWYIQAPRKERELVAPISRTGGGTYYADSVKGRFTISRDNAKNSVYLQMNSLKPEDTAVYYCARGSVYSDAQIYDYWGQGTQVTVSS” the “polyreactivity (PSR sort gate)” value was “low polyreactivity”. With “QVQLVESGGGLVQAGGSLRISCADSGITYSANAMGWYRQAPGKERELVAAITGSGGGTYYADSVKGRFTISRDNAKNTVYLQMNSLKPEDTAVYYCKADNYYYSGFDYWGQGTQVTVSS” the “polyreactivity (PSR sort gate)” value was “low polyreactivity”. In the case of “QVQLVESGGGLVQAGGSLRISCAPSGFTFIYYDMGWYRQAPGKERELVAAINRGGNTYYADSVKGRFTISRDNAKNTVFLLMNSLKPEDTAVYYCNARSYRRGTWYNSWGQGTKVTVSS”, the “polyreactivity (PSR sort gate)” value is reported as “high polyreactivity”. With “QVQLVESGGGLVQAGGSLRISCAPSGIIFTDYAMGWYRQAPVKERELVAAISSGGGYTYYADSVKGRFTISRDNAKNTVYLQMISLKPEDTAVYYCAAEGYLISGAGDYLYDYYLGQGTQVTVSS” the “polyreactivity (PSR sort gate)” value was “high polyreactivity”. With “QVQLVESGGGLVQAGGSLRISCAPSGSTFYYNAIGWSRQAPGKERELVARISRSGGSTYADSVKGRFTISRDNAKNTVYLQMNSLKPEDTAVYYCNADAYGTPEFTSYAVRYDYWGQGTQVTVSS” the “polyreactivity (PSR sort gate)” value was “low polyreactivity”. In the case of “QVQLVESGGGLVQAGGSLRISSAASGRTFGPYAIGWYRQAPGKESELVAAITSSGGSTYYADSVKGRFTISRDTAKNTFYLQMNSLKPEDTAVYYCNKLYWRESPDYDYWGQGTQVTVSS”, the “polyreactivity (PSR sort gate)” value is reported as “low polyreactivity”. With “QVQLVESGGGLVQAGGSLRISSAASGRTFQTNVMGWYRQAPGKERELVAAISKTGGRTYYADSVKGRFTISRDNAKNTVYLQMNSLNPEDTAVYYCAADSSGYEDYDYWGQGTQVTVSS” the “polyreactivity (PSR sort gate)” value was “high polyreactivity”.
